pKi: −log10 of the molar value.
What was measured:
[1] = Variable temperature NMRD and O-17 NMR relaxation in TBS; type: physicochemical
human fibrinogen = target: T1, human fibrinogen (Homo sapiens, UniProt P02671+P02675+P02679); assay: NMRD relaxivity in human fibrinogen/TBS solution; type: physicochemical; details: 30 μM human fibrinogen/TBS, 35 °C
T1 sequence (P02671 20-629 limits assumed): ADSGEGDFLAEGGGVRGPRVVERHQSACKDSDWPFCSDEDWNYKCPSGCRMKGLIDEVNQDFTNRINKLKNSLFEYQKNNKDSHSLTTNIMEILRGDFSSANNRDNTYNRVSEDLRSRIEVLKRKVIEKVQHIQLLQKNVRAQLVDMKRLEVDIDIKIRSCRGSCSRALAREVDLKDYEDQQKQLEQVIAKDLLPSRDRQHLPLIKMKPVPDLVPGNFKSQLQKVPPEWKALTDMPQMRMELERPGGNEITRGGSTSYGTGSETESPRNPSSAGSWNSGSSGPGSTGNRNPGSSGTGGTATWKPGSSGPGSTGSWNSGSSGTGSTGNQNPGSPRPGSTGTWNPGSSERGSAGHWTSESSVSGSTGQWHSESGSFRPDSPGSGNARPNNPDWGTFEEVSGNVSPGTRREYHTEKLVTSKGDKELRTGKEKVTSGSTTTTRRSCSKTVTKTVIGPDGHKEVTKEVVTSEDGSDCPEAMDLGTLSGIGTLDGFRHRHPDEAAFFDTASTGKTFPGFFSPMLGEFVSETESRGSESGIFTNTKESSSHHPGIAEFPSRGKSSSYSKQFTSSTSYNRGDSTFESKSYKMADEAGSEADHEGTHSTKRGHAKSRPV
T1 sequence (P02675 31-491): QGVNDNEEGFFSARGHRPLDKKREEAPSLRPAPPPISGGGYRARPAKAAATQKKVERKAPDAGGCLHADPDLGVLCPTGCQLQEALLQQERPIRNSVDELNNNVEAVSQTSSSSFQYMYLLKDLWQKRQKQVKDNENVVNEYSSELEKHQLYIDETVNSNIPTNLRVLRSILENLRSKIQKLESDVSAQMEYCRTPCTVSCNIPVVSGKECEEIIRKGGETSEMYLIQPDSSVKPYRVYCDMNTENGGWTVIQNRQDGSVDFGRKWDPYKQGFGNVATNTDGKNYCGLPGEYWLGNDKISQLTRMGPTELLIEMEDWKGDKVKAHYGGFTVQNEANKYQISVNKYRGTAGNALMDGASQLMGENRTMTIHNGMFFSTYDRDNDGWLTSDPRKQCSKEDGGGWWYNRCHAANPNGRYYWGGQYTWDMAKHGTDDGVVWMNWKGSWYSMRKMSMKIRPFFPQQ
T1 sequence (P02679 27-433 limits assumed): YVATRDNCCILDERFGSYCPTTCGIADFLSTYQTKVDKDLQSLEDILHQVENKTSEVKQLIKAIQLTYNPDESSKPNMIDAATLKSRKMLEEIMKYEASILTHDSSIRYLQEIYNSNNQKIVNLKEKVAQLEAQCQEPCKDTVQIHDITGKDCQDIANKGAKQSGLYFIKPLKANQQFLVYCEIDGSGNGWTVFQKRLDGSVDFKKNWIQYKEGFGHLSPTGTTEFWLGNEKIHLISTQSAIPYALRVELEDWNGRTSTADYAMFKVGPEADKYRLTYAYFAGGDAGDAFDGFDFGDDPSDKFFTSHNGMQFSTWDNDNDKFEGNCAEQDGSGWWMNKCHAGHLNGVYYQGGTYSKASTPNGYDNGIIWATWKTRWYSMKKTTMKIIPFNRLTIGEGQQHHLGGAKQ

arterial thrombosis = details: guinea pig; cited from earlier work
gelled human fibrin = target: T2, gelled human fibrin (Homo sapiens, UniProt P02671+P02675+P02679); assay: Relaxivity / variable temperature NMRD in fibrin gel; type: physicochemical
T2 sequence (P02671 20-644 isoform P02671-2 limits assumed): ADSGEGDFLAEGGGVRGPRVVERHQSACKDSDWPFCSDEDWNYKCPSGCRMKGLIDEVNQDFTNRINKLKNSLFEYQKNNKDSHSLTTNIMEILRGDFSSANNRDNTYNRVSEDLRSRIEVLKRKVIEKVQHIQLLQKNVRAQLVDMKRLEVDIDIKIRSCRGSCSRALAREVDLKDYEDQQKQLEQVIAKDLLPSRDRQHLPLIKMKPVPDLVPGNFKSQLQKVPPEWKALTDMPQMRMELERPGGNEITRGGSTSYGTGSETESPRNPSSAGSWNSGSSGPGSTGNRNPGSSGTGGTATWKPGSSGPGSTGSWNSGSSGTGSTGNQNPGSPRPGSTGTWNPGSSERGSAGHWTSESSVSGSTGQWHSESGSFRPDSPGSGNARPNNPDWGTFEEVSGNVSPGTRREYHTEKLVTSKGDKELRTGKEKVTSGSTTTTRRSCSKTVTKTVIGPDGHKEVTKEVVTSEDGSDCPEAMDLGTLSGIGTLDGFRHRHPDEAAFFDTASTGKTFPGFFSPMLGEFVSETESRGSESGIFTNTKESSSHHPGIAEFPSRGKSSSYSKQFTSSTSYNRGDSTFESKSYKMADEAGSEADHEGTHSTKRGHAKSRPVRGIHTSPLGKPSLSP
T2 sequence (P02675 45-491 limits assumed): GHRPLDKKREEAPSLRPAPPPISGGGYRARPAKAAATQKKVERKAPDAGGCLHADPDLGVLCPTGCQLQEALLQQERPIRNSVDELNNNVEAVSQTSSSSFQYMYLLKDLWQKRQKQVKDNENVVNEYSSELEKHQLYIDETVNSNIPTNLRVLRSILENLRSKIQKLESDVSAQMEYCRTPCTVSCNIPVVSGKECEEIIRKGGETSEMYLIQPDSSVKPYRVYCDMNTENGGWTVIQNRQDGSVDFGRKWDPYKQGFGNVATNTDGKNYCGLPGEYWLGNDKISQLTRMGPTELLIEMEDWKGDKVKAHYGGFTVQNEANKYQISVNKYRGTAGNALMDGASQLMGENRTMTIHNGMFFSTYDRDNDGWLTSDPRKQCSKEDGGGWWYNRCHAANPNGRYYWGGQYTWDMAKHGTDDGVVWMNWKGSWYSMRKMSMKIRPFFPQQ
T2 sequence (P02679 27-437 isoform P02679-2 limits assumed): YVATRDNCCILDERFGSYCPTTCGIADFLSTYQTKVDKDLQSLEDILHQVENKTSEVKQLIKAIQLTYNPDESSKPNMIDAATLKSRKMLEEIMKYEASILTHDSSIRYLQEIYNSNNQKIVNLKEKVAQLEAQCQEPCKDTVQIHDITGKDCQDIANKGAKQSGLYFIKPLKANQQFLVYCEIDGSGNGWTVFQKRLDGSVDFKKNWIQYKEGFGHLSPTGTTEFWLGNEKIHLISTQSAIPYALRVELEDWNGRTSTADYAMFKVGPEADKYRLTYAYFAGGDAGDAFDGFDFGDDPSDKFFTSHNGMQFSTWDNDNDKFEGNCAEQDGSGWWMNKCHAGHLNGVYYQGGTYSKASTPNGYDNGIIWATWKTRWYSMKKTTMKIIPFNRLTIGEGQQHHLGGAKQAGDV

in vitro = details: male, Sprague Dawley, rat, tissue homogenate
[2] = rat, tissue homogenate
[3] = target: soluble fibrin fragment DD(E); assay: DD; details: read-out: Ki, inhibition of binding of a fluorescent peptide to DD(E); TBS·Ca; DD(E) 1.5 μM, Fl 1 μM; uncertainties estimated at ±10%

SMILES	ΔER^‡ (temperature dependence of τR) [1] [kcal/mol]	ΔH^‡ (temperature dependence of τm) [1] [kcal/mol]	Δ^2 ×10^−18 [1] [s^2]	τm^37 ([1]; 37 °C) [ns]	τv^37 ([1]; 37 °C) [ps]	τR^37 ([1]; 37 °C, isotropic model of rotation) [ps]	F^2 ([1]; dimensionless)	binding to fibrinogen (from relaxivity enhancement) (human fibrinogen)	efficacy in arterial thrombosis model (arterial thrombosis)	ΔEl^‡ (temperature dependence of τloc) (gelled human fibrin; 30 μM fibrin gel (FBN)) [kcal/mol]	τloc^37 (gelled human fibrin; 30 μM fibrin gel (FBN), 37 °C) [ps]	τR^37 (global) (gelled human fibrin; 30 μM fibrin gel (FBN), Lipari-Szabo model)	F^2 (gelled human fibrin; 30 μM fibrin gel (FBN), dimensionless order parameter)	fraction bound to fibrin (gelled human fibrin; 50 μM 5 in 30 μM fibrin gel, based on the measured binding constant) [%]	relaxivity per Gd (gelled human fibrin; bound to fibrin at 1.5T) [mM⁻¹ s⁻¹]	relaxivity per molecule (gelled human fibrin; bound to fibrin at 1.5T) [mM⁻¹ s⁻¹]	global τR (gelled human fibrin; fibrin-bound, best fits) [ns]	half-life at 100 µM (in vitro) [h]	fold increase in metabolic stability [2] [fold]	pKi [3]
CC(C)C[C@H](NC(=O)CN(CCNC(=O)C(CN(CCN(CC(=O)O)CC(=O)O)CC(=O)O)N(CC(=O)O)CC(=O)O)CCNC(=O)C(CN(CCN(CC(=O)O)CC(=O)O)CC(=O)O)N(CC(=O)O)CC(=O)O)C(=O)N1CCC[C@H]1C(=O)N[C@H]1CSSC[C@@H](C(=O)N[C@@H](Cc2ccc(-c3ccccc3)cc2)C(=O)N[C@@H](CC(=O)O)C(=O)NCc2cccc(CNC(=O)CN(CCNC(=O)C(CN(CCN(CC(=O)O)CC(=O)O)CC(=O)O)N(CC(=O)O)CC(=O)O)CCNC(=O)C(CN(CCN(CC(=O)O)CC(=O)O)CC(=O)O)N(CC(=O)O)CC(=O)O)c2)NC(=O)[C@H]([C@@H](C)O)NC(=O)CNC(=O)[C@H](Cc2ccc(O)cc2)NC(=O)[C@H](Cc2ccc(O)cc2)NC(=O)[C@H](CC(=O)O)NC1=O (some centres unmarked) [Compound 5]	5.95 ± 0.096	10.9 ± 0.335	10.2 ±0.5	124±9	18.0 ±1.7	389±4	1	does not bind/binds weakly to fibrinogen	showed efficacy	7.17 ± 0.48	720±20	>20,000 (NA) ps	0.08 ±0.02	81	18	72	> 20			
CC(C)C[C@H](NC(=O)[C@@H]1CSSC[C@H](NC(=O)[C@@H]2CCCN2C(=O)[C@H](CC(C)C)NC(=O)[C@H](CNC(=O)C(CN(CCN(CC(=O)O)CC(=O)O)CC(=O)O)N(CC(=O)O)CC(=O)O)NC(=O)C(CN(CCN(CC(=O)O)CC(=O)O)CC(=O)O)N(CC(=O)O)CC(=O)O)C(=O)N[C@@H](CC(=O)O)C(=O)N[C@@H](Cc2ccc(O)cc2)C(=O)N[C@@H](Cc2ccc(O)cc2)C(=O)NCC(=O)N[C@@H]([C@@H](C)O)C(=O)N1)C(=O)N[C@@H](CC(=O)O)C(=O)NCc1ccc(CNC(=O)[C@H](CNC(=O)C(CN(CCN(CC(=O)O)CC(=O)O)CC(=O)O)N(CC(=O)O)CC(=O)O)NC(=O)C(CN(CCN(CC(=O)O)CC(=O)O)CC(=O)O)N(CC(=O)O)CC(=O)O)cc1 (some centres unmarked) [Compound 4]																		1.09	6 to 7	4.92

— paper PMC2880861 (New journal of chemistry = Nouveau journal de chimie, 2010)
